Common to all, as to assay type: functional, cell membranes, HEK293, Membrane vesicle
Substrate in data set [1]: C=CC1=C(C)/C(=C/c2[nH]c(Cc3[nH]c(/C=C4\NC(=O)C(C)=C4C=C)c(C)c3CCC(=O)O[C@@H]3O[C@@H](C(=O)O)[C@H](O)[C@@H](O)[C@@H]3O)c(CCC(=O)O[C@@H]3O[C@H](C(=O)O)[C@H](O)[C@H](O)[C@@H]3O)c2C)NC1=O
Briefly: (§1) TP_TRANSPORTER: uptake in membrane vesicles from MRP2-expressing HEK cells.

Substrate in data set [2]: C=CC1=C(C)/C(=C/c2[nH]c(Cc3[nH]c(/C=C4\NC(=O)C(C)=C4C=C)c(C)c3CCC(=O)O[C@@H]3OC(C(=O)O)[C@@H](O)C(O)C3O)c(CCC(=O)O)c2C)NC1=O
The data set is described as §1.

Substrate in data set [3]: C=CC1=C(C)/C(=C/c2[nH]c(Cc3[nH]c(/C=C4\NC(=O)C(C)=C4C=C)c(C)c3CCC(=O)O[C@@H]3O[C@@H](C(=O)O)[C@H](O)[C@@H](O)[C@@H]3O)c(CCC(=O)O[C@@H]3O[C@H](C(=O)O)[C@H](O)[C@H](O)[C@@H]3O)c2C)NC1=O
Nature of the data set: (§2) TP_TRANSPORTER: uptake in membrane vesicles from Mrp2-expressing HEK cells.

Substrate in data set [4]: C=CC1=C(C)/C(=C/c2[nH]c(Cc3[nH]c(/C=C4\NC(=O)C(C)=C4C=C)c(C)c3CCC(=O)O[C@@H]3OC(C(=O)O)[C@@H](O)C(O)C3O)c(CCC(=O)O)c2C)NC1=O
The data set is described as §2.

Consider two proteins from ChEMBL document CHEMBL2074447, “Transport of monoglucuronosyl and bisglucuronosyl bilirubin by recombinant human and rat multidrug resistance protein 2” (Hepatology, 1999).

By Km is commonly meant the substrate concentration at which the rate is half of its maximum.

B1: ATP-binding cassette sub-family C member 2 (Homo sapiens) (protein)
chain: MLEKFCNSTFWNSSFLDSPEADLPLCFEQTVLVWIPLGYLWLLAPWQLLHVYKSRTKRSSTTKLYLAKQVFVGFLLILAAIELALVLTEDSGQATVPAVRYTNPSLYLGTWLLVLLIQYSRQWCVQKNSWFLSLFWILSILCGTFQFQTLIRTLLQGDNSNLAYSCLFFISYGFQILILIFSAFSENNESSNNPSSIASFLSSITYSWYDSIILKGYKRPLTLEDVWEVDEEMKTKTLVSKFETHMKRELQKARRALQRRQEKSSQQNSGARLPGLNKNQSQSQDALVLEDVEKKKKKSGTKKDVPKSWLMKALFKTFYMVLLKSFLLKLVNDIFTFVSPQLLKLLISFASDRDTYLWIGYLCAILLFTAALIQSFCLQCYFQLCFKLGVKVRTAIMASVYKKALTLSNLARKEYTVGETVNLMSVDAQKLMDVTNFMHMLWSSVLQIVLSIFFLWRELGPSVLAGVGVMVLVIPINAILSTKSKTIQVKNMKNKDKRLKIMNEILSGIKILKYFAWEPSFRDQVQNLRKKELKNLLAFSQLQCVVIFVFQLTPVLVSVVTFSVYVLVDSNNILDAQKAFTSITLFNILRFPLSMLPMMISSMLQASVSTERLEKYLGGDDLDTSAIRHDCNFDKAMQFSEASFTWEHDSEATVRDVNLDIMAGQLVAVIGPVGSGKSSLISAMLGEMENVHGHITIKGTTAYVPQQSWIQNGTIKDNILFGTEFNEKRYQQVLEACALLPDLEMLPGGDLAEIGEKGINLSGGQKQRISLARATYQNLDIYLLDDPLSAVDAHVGKHIFNKVLGPNGLLKGKTRLLVTHSMHFLPQVDEIVVLGNGTIVEKGSYSALLAKKGEFAKNLKTFLRHTGPEEEATVHDGSEEEDDDYGLISSVEEIPEDAASITMRRENSFRRTLSRSSRSNGRHLKSLRNSLKTRNVNSLKEDEELVKGQKLIKKEFIETGKVKFSIYLEYLQAIGLFSIFFIILAFVMNSVAFIGSNLWLSAWTSDSKIFNSTDYPASQRDMRVGVYGALGLAQGIFVFIAHFWSAFGFVHASNILHKQLLNNILRAPMRFFDTTPTGRIVNRFAGDISTVDDTLPQSLRSWITCFLGIISTLVMICMATPVFTIIVIPLGIIYVSVQMFYVSTSRQLRRLDSVTRSPIYSHFSETVSGLPVIRAFEHQQRFLKHNEVRIDTNQKCVFSWITSNRWLAIRLELVGNLTVFFSALMMVIYRDTLSGDTVGFVLSNALNITQTLNWLVRMTSEIETNIVAVERITEYTKVENEAPWVTDKRPPPDWPSKGKIQFNNYQVRYRPELDLVLRGITCDIGSMEKIGVVGRTGAGKSSLTNCLFRILEAAGGQIIIDGVDIASIGLHDLREKLTIIPQDPILFSGSLRMNLDPFNNYSDEEIWKALELAHLKSFVASLQLGLSHEVTEAGGNLSIGQRQLLCLGRALLRKSKILVLDEATAAVDLETDNLIQTTIQNEFAHCTVITIAHRLHTIMDSDKVMVLDNGKIIECGSPEELLQIPGPFYFMAKEAGIENVNSTKF
As for B1, the Km stood at 0.9 µM in data set [1] and 0.7 µM in data set [2].

B2: ATP-binding cassette sub-family C member 2 (Rattus norvegicus) (protein)
chain: MDKFCNSTFWDLSLLESPEADLPLCFEQTVLVWIPLGFLWLLAPWQLYSVYRSRTKRSSITKFYLAKQVFVVFLLILAAIDLSLALTEDTGQATVPPVRYTNPILYLCTWLLVLAVQHSRQWCVRKNSWFLSLFWILSVLCGVFQFQTLIRALLKDSKSNMAYSYLFFVSYGFQIVLLILTAFSGPSDSTQTPSVTASFLSSITFSWYDRTVLKGYKHPLTLEDVWDIDEGFKTRSVTSKFEAAMTKDLQKARQAFQRRLQKSQRKPEATLHGLNKKQSQSQDVLVLEEAKKKSEKTTKDYPKSWLIKSLFKTFHVVILKSFILKLIHDLLVFLNPQLLKLLIGFVKSSNSYVWFGYICAILMFAVTLIQSFCLQSYFQHCFVLGMCVRTTVMSSIYKKALTLSNLARKQYTIGETVNLMSVDSQKLMDATNYMQLVWSSVIQITLSIFFLWRELGPSILAGVGVMVLLIPVNGVLATKIRNIQVQNMKNKDKRLKIMNEILSGIKILKYFAWEPSFQEQVQGIRKKELKNLLRFGQLQSLLIFILQITPILVSVVTFSVYVLVDSANVLNAEKAFTSITLFNILRFPLSMLPMVTSSILQASVSVDRLERYLGGDDLDTSAIRRVSNFDKAVKFSEASFTWDPDLEATIQDVNLDIKPGQLVAVVGTVGSGKSSLVSAMLGEMENVHGHITIQGSTAYVPQQSWIQNGTIKDNILFGSEYNEKKYQQVLKACALLPDLEILPGGDMAEIGEKGINLSGGQKQRVSLARAAYQDADIYILDDPLSAVDAHVGKHIFNKVVGPNGLLAGKTRIFVTHGIHFLPQVDEIVVLGKGTILEKGSYRDLLDKKGVFARNWKTFMKHSGPEGEATVNNDSEAEDDDDGLIPTMEEIPEDAASLAMRRENSLRRTLSRSSRSSSRRGKSLKNSLKIKNVNVLKEKEKEVEGQKLIKKEFVETGKVKFSIYLKYLQAVGWWSILFIILFYGLNNVAFIGSNLWLSAWTSDSDNLNGTNNSSSHRDMRIGVFGALGLAQGICLLISTLWSIYACRNASKALHGQLLTNILRAPMRFFDTTPTGRIVNRFSGDISTVDDLLPQTLRSWMMCFFGIAGTLVMICMATPVFAIIIIPLSILYISVQVFYVATSRQLRRLDSVTKSPIYSHFSETVTGLPIIRAFEHQQRFLAWNEKQIDINQKCVFSWITSNRWLAIRLELVGNLVVFCSALLLVIYRKTLTGDVVGFVLSNALNITQTLNWLVRMTSEAETNIVAVERISEYINVENEAPWVTDKRPPADWPRHGEIQFNNYQVRYRPELDLVLKGITCNIKSGEKVGVVGRTGAGKSSLTNCLFRILESAGGQIIIDGIDVASIGLHDLRERLTIIPQDPILFSGSLRMNLDPFNKYSDEEVWRALELAHLRSFVSGLQLGLLSEVTEGGDNLSIGQRQLLCLGRAVLRKSKILVLDEATAAVDLETDSLIQTTIRKEFSQCTVITIAHRLHTIMDSDKIMVLDNGKIVEYGSPEELLSNRGSFYLMAKEAGIENVNHTEL
Turning to B2, the results for the Km in data set [3] and in data set [4] were 0.5 µM and 0.8 µM, respectively.
